The subject of this data set is T1, MG3-6/3-4 chimera (MG3-6 1-742 + MG3-4 743-1134) (synthetic construct).
T1 sequence: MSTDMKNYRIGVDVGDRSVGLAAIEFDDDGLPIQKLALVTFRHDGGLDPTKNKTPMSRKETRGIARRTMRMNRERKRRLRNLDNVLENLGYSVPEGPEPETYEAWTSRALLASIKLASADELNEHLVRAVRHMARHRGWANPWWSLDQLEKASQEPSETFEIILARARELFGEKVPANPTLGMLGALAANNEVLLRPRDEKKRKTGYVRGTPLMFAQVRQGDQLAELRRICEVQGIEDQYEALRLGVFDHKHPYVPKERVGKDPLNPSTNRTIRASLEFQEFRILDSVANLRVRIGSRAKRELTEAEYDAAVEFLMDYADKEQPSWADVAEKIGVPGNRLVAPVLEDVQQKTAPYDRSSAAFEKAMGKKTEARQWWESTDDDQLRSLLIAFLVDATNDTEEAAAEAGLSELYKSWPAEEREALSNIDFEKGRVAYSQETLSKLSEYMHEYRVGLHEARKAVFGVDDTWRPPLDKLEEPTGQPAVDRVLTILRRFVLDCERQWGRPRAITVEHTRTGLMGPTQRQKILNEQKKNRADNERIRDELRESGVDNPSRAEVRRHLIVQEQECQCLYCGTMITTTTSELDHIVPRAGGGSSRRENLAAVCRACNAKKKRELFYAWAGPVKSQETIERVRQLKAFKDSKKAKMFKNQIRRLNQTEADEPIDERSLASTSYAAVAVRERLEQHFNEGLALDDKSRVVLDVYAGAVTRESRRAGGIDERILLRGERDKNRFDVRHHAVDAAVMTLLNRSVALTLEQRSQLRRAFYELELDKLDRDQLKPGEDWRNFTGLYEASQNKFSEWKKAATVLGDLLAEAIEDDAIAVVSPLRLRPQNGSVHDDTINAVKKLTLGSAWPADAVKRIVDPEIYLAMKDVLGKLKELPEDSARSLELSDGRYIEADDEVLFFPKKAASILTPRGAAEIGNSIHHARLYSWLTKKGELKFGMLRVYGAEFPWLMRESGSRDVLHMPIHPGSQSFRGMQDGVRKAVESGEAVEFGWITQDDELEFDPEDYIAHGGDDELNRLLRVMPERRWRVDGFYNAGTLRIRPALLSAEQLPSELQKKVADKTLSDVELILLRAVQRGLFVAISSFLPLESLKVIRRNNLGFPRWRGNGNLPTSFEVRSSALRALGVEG
The data set can be described thus: cell_activity. The note with it: 2'-OMe and PS at termini; Hep3B; 25.0 % in PHH; PAM NNAAA(A/T)N.

For the sequence “CCAUCUAUCAGCUGGGAAGAUAGUUGAGAAUCGAAAGAUUCUUAAUAAGGCAUCCUUCCGAUGCUGACUUCUCACCGUCCGUUUUCCAAUAGGAGCGGGCGGUAUGUUUU / CCATCTATCAGCTGGGAAGATATCAAATG / CATTTGATATCTTCCCAGCTGATAGATGG [hH364-32 sgRNA ; human HAO1 hH364-32 target]”, the activity worked out at 60 % indel.

(Values after patent US20250002886.)
